According to publication doi:10.1101/755678:

Key:
[1] = target: RagA (TonB dependent transporter, PG_0185) of P. gingivalis W83 (Porphyromonas gingivalis W83); assay: cryo-EM structure
[2] = target: RagA (TonB dependent transporter, PG_0185) of P. gingivalis W83 (Porphyromonas gingivalis W83); assay: crystal structure
[3] = target: RagB from W83, mature part, C-terminal His6-tag, expressed in E. coli (Porphyromonas gingivalis W83); assay: MST
[4] = target: RagB from ATCC 33277, mature part, C-terminal His6-tag, expressed in E. coli (Porphyromonas gingivalis ATCC 33277); assay: MST
[5] = target: RagAB complex from wild-type P. gingivalis W83, 8×His-tag on the C terminus of RagB (Porphyromonas gingivalis W83); assay: MST

Molecule	stoichiometry N [1]	stoichiometry N [2]	Kd [3] [µM]	Kd [4] [µM]	Kd [5] [µM]
RagA (TonB dependent transporter, PG_0185) of P. gingivalis W83 (natural protein)	2	2			
NIFKKNVGFKK [P4 peptide (unlabelled)]			2000	70	
KATAEALKKALEEAGAEVELK [P21 peptide (21 residues from the C-terminus of ribosomal protein L7)]			2000	700	0.4
